Entries after “also recorded” stand apart in the source; their conditions may differ.
B1: Nematostella: VKOR from Nematostella rendered warfarin resistant by Y135F mutation, SEQ ID NO:10 (protein, listed as Nematostella vectensis)
chain: MDKLGGFRMMLCVAGVFLSAYALNVEVSKSNNKDYRAICDISEKISCSKVFSSKYGTGFGLVEPIFGKDSTLNVPNSIFGIMFYTMVFLLGFSRSKLAAQLSVFSAVLSCLGSVYLGCILYFVLQDVCIICISTYVVNACLLVVNSLSLVNLQERTKRKQK
B2: Hamster: Syrian golden hamster (AV12) VKOR, SEQ ID NO:3, Y139F warfarin resistant (protein, listed as Cricetulus griseus)
chain: MGTTWRSPGRWRLALCLAGLALSLYALHVKAARARDEDYRALCDVGSAISCSRVFSSRWGKGLGLVEHVLGPDSVLNQNSIFGCIFYTIQLLLGCLRGRWAFLLLVLSSLVSFAGSVYLAWILFFVLYDFCIVCITTYVINVGLMLLNFQDVPEHKAKRH
B3: Acropora: Acropora VKOR (translation of EZ012735, SEQ ID NO:9), Y136F warfarin resistant (protein, listed as Acropora millepora)
chain: MVSFLGISRLLVCLAGIALSIYALHVELSKAHDKDYKALCDINEHMSCSKVFTSKYGTGFGLVEPLLGKNHPFNVPNSIFGIIFYSLIIILGVVSGKFAALMMFLFSLASCVGSVYLGYILFYILHDTCVVCISTYVVNACLFVINMITLNDALSAPSPKKKKN
B4: MT-VKORH: Mycobacterium tuberculosis VKOR homologue, NP_217484, SEQ ID NO:18 (protein, listed as Mycobacterium tuberculosis)
chain: MVAARPAERSGDPAAVRVPVPSAWWVLIGGVIGLFASMTLTVEKVRILLDPIYVPSCNVNPIVSCGSVMTTPQASLLGFPNPLLGIAGFTVVVVTGVLAVAKVPLPRWYWIGLAVGILVGVAFVHWLIFQSLYRIGALCPYCMVVWAVIATLLVVVASIVFGPMRENRGSQERVGARLLYQWRWSLATLWFTTVFLLIMVRFWDYSTLI
B5: C51A/Y139F: human VKOR with C51A and Y139F mutations (protein)
chain: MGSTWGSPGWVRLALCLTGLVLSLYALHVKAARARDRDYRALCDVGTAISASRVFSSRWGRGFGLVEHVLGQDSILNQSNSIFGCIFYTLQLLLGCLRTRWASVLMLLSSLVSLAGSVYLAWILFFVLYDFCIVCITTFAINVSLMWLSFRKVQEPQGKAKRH
modifications: Human VKOR with C51A mutation
notes: human VKOR with C51A and Y139F mutations

Tested on: carboxylation of FIXgla-PC reporter protein in HEK293 cells (reduction of KO to vitamin K)
Experiment: Cell-based VKOR activity assay: recombinant VKOR/VKORH expressed in FIXgla-PC/HEK293 cells with KO and warfarin, carboxylated reporter by ELISA
Set-up: species or system human
Settings: for ability to promote carboxylation of the reporter protein compared to recombinant human VKOR: FIXgla-PC HEK293 (FIGS. 9, 10); for Relative activity: Human Y139F: VKOR of the organism compared to human Y139F VKOR, cell-based carboxylation; for sensitivity to warfarin: warfarin level used in these assays

Molecule | ability to promote carboxylation of the reporter protein compared to recombinant human VKOR (5 μM KO, 2 μM warfarin) | Relative activity: Human Y139F | also measured
VKOR: human vitamin K epoxide reductase, AAS01052, SEQ ID NO:5 | – | – | activity in cell-based in vivo activity assays: active in the vitamin K cycle
B1 | consistently better; also recorded: considerably more active | Yes, greater | ability to promote carboxylation of the reporter protein compared to recombinant human VKOR (5 μM KO, 2 μM warfarin, listed as Nematostella Y135F): greater ability to stimulate carboxylation
B2 | undiminished ability | Yes, greater | –
B3 | also promotes carboxylation of the reporter protein | Yes, greater | –
B4 | greater activity | – | support of carboxylation of the reporter protein with KO as substrate (5 μM KO, 4 μM warfarin, 48 h (FIG. 15B)): supported carboxylation of the reporter protein; sensitivity to warfarin: naturally resistant to warfarin; sensitivity to warfarin (listed as VKOR from Mycobacterium tuberculosis): resistant to warfarin at the doses employed
B5 | greater activity | – | carboxylation of reporter protein by human VKOR cysteine mutants (Y139F background, 4 μM warfarin, HEK293 (FIG. 13)): greater activity than VKORY139F; activity relative to human VKOR (Y139F) (both human forms carry Y139F, 5 μM KO, 2 μM warfarin): about 2 fold

— patent US9631002B2, “Methods and compositions for producing active vitamin K-dependent proteins” (The University of North Carolina at Chapel Hill, priority 2010, dated 2017)
